According to publication PMC9992711, “Two-step structural changes in M3 muscarinic receptor activation rely on the coupled Gq protein cycle” (Nature Communications, 2023):
Blank lines part the entries; values can stand above or below the compound they belong to.

Key:
[1] = biological target: T1, human M3 muscarinic receptor (hM3R) (Homo sapiens, UniProt P20309, DEL271-484); experiment: intramolecular receptor FRET in HEK293T cells, concentration-response; format: cell-based
T1 construct: gene CHRM3; hM3R-YFP-CFP (EYFP replaces segment between Ala270 and Lys485 in ICL3; Cerulean at C-terminus)

[2] = biological target: T2, mouse M1 muscarinic receptor (mM1R) (Mus musculus, UniProt P12657); experiment: receptor FRET and RFP-PH translocation in HEK293T cells; format: cell-based
T2 construct: gene Chrm1; mM1R-YFP-CFP; wild-type mM1R
T2 sequence (P12657 1-460): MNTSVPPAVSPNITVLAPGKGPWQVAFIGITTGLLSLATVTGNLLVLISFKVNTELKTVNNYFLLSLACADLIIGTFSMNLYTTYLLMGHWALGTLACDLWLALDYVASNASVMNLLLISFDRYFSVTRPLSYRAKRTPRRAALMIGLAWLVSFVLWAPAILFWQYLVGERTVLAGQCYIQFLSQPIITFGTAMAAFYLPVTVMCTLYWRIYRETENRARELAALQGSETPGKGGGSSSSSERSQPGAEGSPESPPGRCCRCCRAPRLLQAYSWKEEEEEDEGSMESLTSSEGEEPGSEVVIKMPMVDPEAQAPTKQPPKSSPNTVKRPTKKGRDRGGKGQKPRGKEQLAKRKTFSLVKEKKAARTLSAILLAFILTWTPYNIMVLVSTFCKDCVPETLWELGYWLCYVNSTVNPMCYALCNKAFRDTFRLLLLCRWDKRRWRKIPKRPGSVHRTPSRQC

hM3R-Cerulean (human) [3] = biological target: hM3R-Cerulean (human) (UniProt P20309); experiment: FRET or BRET; CFP/YFP photometry on single live HEK293T (tsA-201) cells; labelled pair with the remaining cognate G protein subunits co-transfected (GRK2 too for Gαq-CFP with Gβ1-YFP; only the two probes for hM3R-CFP with YFP-PLCβ1); 10 μM Oxo-M applied and washed out
hM3R-Cerulean (human) [4] = biological target: hM3R-Cerulean (human) (UniProt P20309); experiment: FRET or BRET; CFP/YFP photometry on single live HEK293T (tsA-201) cells; labelled pair co-transfected with the remaining cognate G protein subunits (GRK2 too for Gαq-CFP with Gβ1-YFP); whole-cell patch, pipette with 0.1 mM GTP; 10 μM Oxo-M applied; room temperature
[5] = biological target: hM3R-EYFP-Cerulean (human) (UniProt P20309)

Chain of heterotrimeric Gq protein (P50148 whole entry, looked up, one chain of several): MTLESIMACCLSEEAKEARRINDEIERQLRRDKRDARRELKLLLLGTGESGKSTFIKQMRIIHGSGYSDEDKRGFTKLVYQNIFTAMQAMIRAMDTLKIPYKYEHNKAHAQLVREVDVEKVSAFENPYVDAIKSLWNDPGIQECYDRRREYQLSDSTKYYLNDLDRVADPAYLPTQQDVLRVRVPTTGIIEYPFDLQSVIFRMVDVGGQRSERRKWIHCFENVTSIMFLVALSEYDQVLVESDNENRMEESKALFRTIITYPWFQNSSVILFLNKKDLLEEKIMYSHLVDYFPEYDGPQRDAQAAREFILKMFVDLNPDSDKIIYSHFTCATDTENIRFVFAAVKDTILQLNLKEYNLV

Compound: C[N+](C)(C)CC#CCN1CCCC1=O [Oxo-M, oxotremorine-M]
EC50 [1]: 112 nM | receptor FRET and RFP-PH translocation in HEK293T cells [2]: wild-type mM1R or hM3R plasmid showed a strong translocation of RFP-PH from the plasma membrane to cytosol by Oxo-M

deactivation time constant τ of FRETr after Oxo-M washout (hM3R-Cerulean (human) [3]): 0.53 s | time constant τ of the FRETr increase on Oxo-M (hM3R-Cerulean (human) [4]): 0.23 s
Compound: Gβγ subunits (bovine Gβ1-EYFP with Gγ2) (from UniProt P62871 1-340; P59768 1-71) (complex; other documents disagree on this pair)

intramolecular FRETr of hM3R-YFP-CFP, time constant τ of step 1 on Oxo-M, intact HEK293T cells [5]: 0.22 s
Compound: heterotrimeric Gq protein (from UniProt P50148 1-359) (complex)
